B1: RAD51AP1 (RAD51 associated protein 1), full-length wild type [not stated] / RAD51 recombinase [not stated] (parent complex)
chain 1: MVRPVRHKKPVNYSQFDHSDSDDDFVSATVPLNKKSRTAPKELKQDKPKPNLNNLRKEEIPVQEKTPKKRLPEGTFSIPASAVPCTKMALDDKLYQRDLEVALALSVKELPTVTTNVQNSQDKSIEKHGSSKIETMNKSPHISNCSVASDYLDLDKITVEDDVGGVQGKRKAASKAAAQQRKILLEGSDGDSANDTEPDFAPGEDSEDDSDFCESEDNDEDFSMRKSKVKEIKKKEVKVKSPVEKKEKKSKSKCNALVTSVDSAPAAVKSESQSLPKKVSLSSDTTRKPLEIRSPSAESKKPKWVPPAASGGSRSSSSPLVVVSVKSPNQSLRLGLSRLARVKPLHPNATST
chain 2: MAMQMQLEANADTSVEEESFGPQPISRLEQCGINANDVKKLEEAGFHTVEAVAYAPKKELINIKGISEAKADKILAEAAKLVPMGFTTATEFHQRRSEIIQITTGSKELDKLLQGGIETGSITEMFGEFRTGKTQICHTLAVTCQLPIDRGGGEGKAMYIDTEGTFRPERLLAVAERYGLSGSDVLDNVAYARAFNTDHQTQLLYQASAMMVESRYALLIVDSATALYRTDYSGRGELSARQMHLARFLRMLLRLADEFGVAVVITNQVVAQVDGAAMFAADPKKPIGGNIIAHASTTRLYLRKGRGETRICKIYDSPCLPEAEAMFAINADGVGDAKD

Variants of: B1
Assay: BLI; RAD51 about 2.5 µM (highest point, read from the x axis); read off a plot

Row | response | Variant
1 | ~0.005 nm | chain 1 R333A, chain 1 L334A, chain 1 L336A

From PMC12704761, “RAD51AP1 is a versatile RAD51 modulator” (Proceedings of the National Academy of Sciences of the …, 2025)
